This is an account of results in patent publication US20260209266A1.

In assay [1] the target is Protein A (immobilized on a chromatography column) (UniProt P38507). Briefly: Protein A chromatography, linear pH gradient.
Assay [2] shares this target. The experiment in a line: Protein A chromatography (rProtein A FF), step gradient, 20 mM sodium citrate, 1 M NaCl.

“IgG1 heterodimer having two IgG1 heavy chains identical but for an H435R/Y436F dipeptide modification in one CH3 domain (antibody)” gave an elution pH from Protein A column in assay [1] of 3.9 pH. Substance “differentially modified heterodimeric human IgG2 Fc/ΔAdpFc (from UniProt P01859 99-219; P01859 99-219)” showed an elution pH from Protein A column in assay [2] of 4.5 pH. Same read-out and setting: the value for “differentially modified heterodimeric human IgG4 (Fc/ΔAdpFc) (from UniProt P01861 99-220; P01861 99-220)” was 4 pH.
